Test results from the Human Domainome abundance scans (Beltran et al. 2025).
± gives the uncertainty stated by the source.

B1: Nucleosome-remodeling factor subunit BPTF, residues 2862 to 2918; numbered along this chain, Q12830 (parent)
chain: TKKDTKLYCICKTPYDESKFYIGCDRCQNWYHGRCVGILQSEAELIDEYVCPQCQST
B2: Cold shock protein CspB, residues 1 to 66; numbered along this chain, P41016 (parent)
chain: MQRGKVKWFNNEKGYGFIEVEGGSDVFVHFTAIQGEGFKTLEEGQEVSFEIVQGNRGPQAANVVKL

Variants of: B1
Test: abundance fitness (aPCA) (normalised: wild type 0, dead -1); higher = more abundant; growth selection in yeast, the domain comes from the species named
Conditions: Homo sapiens

| Variant | abundance fitness |
| --- | --- |
| RKKDTKLYCICKTPYDESKFYIGCDRCQNWYHGRCVGILQSEAELIDEYVCPQCQST [T1R] | -0.281 ± 0.15 |
| EKKDTKLYCICKTPYDESKFYIGCDRCQNWYHGRCVGILQSEAELIDEYVCPQCQST [T1E] | -0.185 ± 0.28 |
| SKKDTKLYCICKTPYDESKFYIGCDRCQNWYHGRCVGILQSEAELIDEYVCPQCQST [T1S] | -0.104 ± 0.091 |
| NKKDTKLYCICKTPYDESKFYIGCDRCQNWYHGRCVGILQSEAELIDEYVCPQCQST [T1N] | 0.018 ± 0.22 |
| DKKDTKLYCICKTPYDESKFYIGCDRCQNWYHGRCVGILQSEAELIDEYVCPQCQST [T1D] | -0.071 ± 0.34 |
| LKKDTKLYCICKTPYDESKFYIGCDRCQNWYHGRCVGILQSEAELIDEYVCPQCQST [T1L] | -0.256 ± 0.18 |
| MKKDTKLYCICKTPYDESKFYIGCDRCQNWYHGRCVGILQSEAELIDEYVCPQCQST [T1M] | -0.13 ± 0.19 |
| IKKDTKLYCICKTPYDESKFYIGCDRCQNWYHGRCVGILQSEAELIDEYVCPQCQST [T1I] | -0.132 ± 0.19 |
| GKKDTKLYCICKTPYDESKFYIGCDRCQNWYHGRCVGILQSEAELIDEYVCPQCQST [T1G] | -0.147 ± 0.15 |
| HKKDTKLYCICKTPYDESKFYIGCDRCQNWYHGRCVGILQSEAELIDEYVCPQCQST [T1H] | -0.277 ± 0.26 |
| PKKDTKLYCICKTPYDESKFYIGCDRCQNWYHGRCVGILQSEAELIDEYVCPQCQST [T1P] | -0.264 ± 0.18 |
| AKKDTKLYCICKTPYDESKFYIGCDRCQNWYHGRCVGILQSEAELIDEYVCPQCQST [T1A] | -0.54 ± 0.29 |
| VKKDTKLYCICKTPYDESKFYIGCDRCQNWYHGRCVGILQSEAELIDEYVCPQCQST [T1V] | -0.177 ± 0.17 |
| WKKDTKLYCICKTPYDESKFYIGCDRCQNWYHGRCVGILQSEAELIDEYVCPQCQST [T1W] | -0.152 ± 0.19 |
| KKKDTKLYCICKTPYDESKFYIGCDRCQNWYHGRCVGILQSEAELIDEYVCPQCQST [T1K] | -0.199 ± 0.16 |
| TKCDTKLYCICKTPYDESKFYIGCDRCQNWYHGRCVGILQSEAELIDEYVCPQCQST [K3C] | -0.697 ± 0.15 |
| TKFDTKLYCICKTPYDESKFYIGCDRCQNWYHGRCVGILQSEAELIDEYVCPQCQST [K3F] | -0.041 ± 0.11 |
| TKYDTKLYCICKTPYDESKFYIGCDRCQNWYHGRCVGILQSEAELIDEYVCPQCQST [K3Y] | -0.273 ± 0.13 |
| TKDDTKLYCICKTPYDESKFYIGCDRCQNWYHGRCVGILQSEAELIDEYVCPQCQST [K3D] | -0.097 ± 0.16 |
| TKNDTKLYCICKTPYDESKFYIGCDRCQNWYHGRCVGILQSEAELIDEYVCPQCQST [K3N] | -0.379 ± 0.15 |
| TKMDTKLYCICKTPYDESKFYIGCDRCQNWYHGRCVGILQSEAELIDEYVCPQCQST [K3M] | -0.152 ± 0.11 |
| TKTDTKLYCICKTPYDESKFYIGCDRCQNWYHGRCVGILQSEAELIDEYVCPQCQST [K3T] | 0.013 ± 0.084 |
| TKRDTKLYCICKTPYDESKFYIGCDRCQNWYHGRCVGILQSEAELIDEYVCPQCQST [K3R] | -0.131 ± 0.068 |
| TKWDTKLYCICKTPYDESKFYIGCDRCQNWYHGRCVGILQSEAELIDEYVCPQCQST [K3W] | -0.629 ± 0.12 |

| Variant | abundance fitness |
| --- | --- |
| TKSDTKLYCICKTPYDESKFYIGCDRCQNWYHGRCVGILQSEAELIDEYVCPQCQST [K3S] | 0.036 ± 0.078 |
| TKQDTKLYCICKTPYDESKFYIGCDRCQNWYHGRCVGILQSEAELIDEYVCPQCQST [K3Q] | -0.032 ± 0.14 |
| TKEDTKLYCICKTPYDESKFYIGCDRCQNWYHGRCVGILQSEAELIDEYVCPQCQST [K3E] | 0.014 ± 0.12 |
| TKLDTKLYCICKTPYDESKFYIGCDRCQNWYHGRCVGILQSEAELIDEYVCPQCQST [K3L] | -0.111 ± 0.073 |
| TKIDTKLYCICKTPYDESKFYIGCDRCQNWYHGRCVGILQSEAELIDEYVCPQCQST [K3I] | -0.057 ± 0.097 |
| TKVDTKLYCICKTPYDESKFYIGCDRCQNWYHGRCVGILQSEAELIDEYVCPQCQST [K3V] | -0.009 ± 0.073 |
| TKHDTKLYCICKTPYDESKFYIGCDRCQNWYHGRCVGILQSEAELIDEYVCPQCQST [K3H] | -0.424 ± 0.16 |
| TKADTKLYCICKTPYDESKFYIGCDRCQNWYHGRCVGILQSEAELIDEYVCPQCQST [K3A] | -0.146 ± 0.073 |
| TKGDTKLYCICKTPYDESKFYIGCDRCQNWYHGRCVGILQSEAELIDEYVCPQCQST [K3G] | -0.148 ± 0.071 |
| TKKYTKLYCICKTPYDESKFYIGCDRCQNWYHGRCVGILQSEAELIDEYVCPQCQST [D4Y] | -0.154 ± 0.073 |
| TKKTTKLYCICKTPYDESKFYIGCDRCQNWYHGRCVGILQSEAELIDEYVCPQCQST [D4T] | -0.124 ± 0.066 |
| TKKRTKLYCICKTPYDESKFYIGCDRCQNWYHGRCVGILQSEAELIDEYVCPQCQST [D4R] | -0.446 ± 0.062 |
| TKKGTKLYCICKTPYDESKFYIGCDRCQNWYHGRCVGILQSEAELIDEYVCPQCQST [D4G] | -0.163 ± 0.063 |
| TKKHTKLYCICKTPYDESKFYIGCDRCQNWYHGRCVGILQSEAELIDEYVCPQCQST [D4H] | -0.195 ± 0.06 |
| TKKFTKLYCICKTPYDESKFYIGCDRCQNWYHGRCVGILQSEAELIDEYVCPQCQST [D4F] | -0.226 ± 0.077 |
| TKKVTKLYCICKTPYDESKFYIGCDRCQNWYHGRCVGILQSEAELIDEYVCPQCQST [D4V] | -0.215 ± 0.061 |
| TKKPTKLYCICKTPYDESKFYIGCDRCQNWYHGRCVGILQSEAELIDEYVCPQCQST [D4P] | -0.112 ± 0.074 |
| TKKKTKLYCICKTPYDESKFYIGCDRCQNWYHGRCVGILQSEAELIDEYVCPQCQST [D4K] | -0.005 ± 0.086 |
| TKKCTKLYCICKTPYDESKFYIGCDRCQNWYHGRCVGILQSEAELIDEYVCPQCQST [D4C] | -0.316 ± 0.087 |
| TKKATKLYCICKTPYDESKFYIGCDRCQNWYHGRCVGILQSEAELIDEYVCPQCQST [D4A] | -0.18 ± 0.062 |
| TKKITKLYCICKTPYDESKFYIGCDRCQNWYHGRCVGILQSEAELIDEYVCPQCQST [D4I] | -0.179 ± 0.065 |
| TKKLTKLYCICKTPYDESKFYIGCDRCQNWYHGRCVGILQSEAELIDEYVCPQCQST [D4L] | -0.238 ± 0.059 |
| TKKETKLYCICKTPYDESKFYIGCDRCQNWYHGRCVGILQSEAELIDEYVCPQCQST [D4E] | -0.005 ± 0.1 |
| TKKSTKLYCICKTPYDESKFYIGCDRCQNWYHGRCVGILQSEAELIDEYVCPQCQST [D4S] | -0.008 ± 0.055 |

| Variant | abundance fitness |
| --- | --- |
| TKKMTKLYCICKTPYDESKFYIGCDRCQNWYHGRCVGILQSEAELIDEYVCPQCQST [D4M] | -0.088 ± 0.11 |
| TKKNTKLYCICKTPYDESKFYIGCDRCQNWYHGRCVGILQSEAELIDEYVCPQCQST [D4N] | -0.087 ± 0.066 |
| TKKDTALYCICKTPYDESKFYIGCDRCQNWYHGRCVGILQSEAELIDEYVCPQCQST [K6A] | 0.069 ± 0.072 |
| TKKDTCLYCICKTPYDESKFYIGCDRCQNWYHGRCVGILQSEAELIDEYVCPQCQST [K6C] | -0.161 ± 0.089 |
| TKKDTDLYCICKTPYDESKFYIGCDRCQNWYHGRCVGILQSEAELIDEYVCPQCQST [K6D] | -0.062 ± 0.084 |
| TKKDSKLYCICKTPYDESKFYIGCDRCQNWYHGRCVGILQSEAELIDEYVCPQCQST [T5S] | -0.071 ± 0.057 |
| TKKDHKLYCICKTPYDESKFYIGCDRCQNWYHGRCVGILQSEAELIDEYVCPQCQST [T5H] | -0.055 ± 0.066 |
| TKKDLKLYCICKTPYDESKFYIGCDRCQNWYHGRCVGILQSEAELIDEYVCPQCQST [T5L] | -0.092 ± 0.063 |
| TKKDKKLYCICKTPYDESKFYIGCDRCQNWYHGRCVGILQSEAELIDEYVCPQCQST [T5K] | 0.05 ± 0.086 |
| TKKDVKLYCICKTPYDESKFYIGCDRCQNWYHGRCVGILQSEAELIDEYVCPQCQST [T5V] | -0.282 ± 0.06 |
| TKKDDKLYCICKTPYDESKFYIGCDRCQNWYHGRCVGILQSEAELIDEYVCPQCQST [T5D] | 0.028 ± 0.08 |
| TKKDNKLYCICKTPYDESKFYIGCDRCQNWYHGRCVGILQSEAELIDEYVCPQCQST [T5N] | 0.016 ± 0.063 |
| TKKDWKLYCICKTPYDESKFYIGCDRCQNWYHGRCVGILQSEAELIDEYVCPQCQST [T5W] | -0.238 ± 0.11 |
| TKKDIKLYCICKTPYDESKFYIGCDRCQNWYHGRCVGILQSEAELIDEYVCPQCQST [T5I] | -0.017 ± 0.062 |
| TKKDFKLYCICKTPYDESKFYIGCDRCQNWYHGRCVGILQSEAELIDEYVCPQCQST [T5F] | -0.076 ± 0.068 |
| TKKDQKLYCICKTPYDESKFYIGCDRCQNWYHGRCVGILQSEAELIDEYVCPQCQST [T5Q] | -0.052 ± 0.1 |
| TKKDEKLYCICKTPYDESKFYIGCDRCQNWYHGRCVGILQSEAELIDEYVCPQCQST [T5E] | 0.064 ± 0.12 |
| TKKDAKLYCICKTPYDESKFYIGCDRCQNWYHGRCVGILQSEAELIDEYVCPQCQST [T5A] | -0.213 ± 0.07 |
| TKKDGKLYCICKTPYDESKFYIGCDRCQNWYHGRCVGILQSEAELIDEYVCPQCQST [T5G] | -0.155 ± 0.073 |
| TKKDYKLYCICKTPYDESKFYIGCDRCQNWYHGRCVGILQSEAELIDEYVCPQCQST [T5Y] | -0.016 ± 0.066 |
| TKKDMKLYCICKTPYDESKFYIGCDRCQNWYHGRCVGILQSEAELIDEYVCPQCQST [T5M] | 0.024 ± 0.094 |
| TKKDCKLYCICKTPYDESKFYIGCDRCQNWYHGRCVGILQSEAELIDEYVCPQCQST [T5C] | 0.002 ± 0.077 |

Variants of: B2
Test: as above
Conditions: Bacillus caldolyticus

| Variant | abundance fitness |
| --- | --- |
| K65Q | -0.023 ± 0.06 |
| K65I | 0.04 ± 0.076 |
| K65E | -0.03 ± 0.084 |
| K65A | 0.002 ± 0.051 |
| K65Y | -0.13 ± 0.047 |
| K65V | -0.015 ± 0.056 |
